The test system of the series is phosphoglucoisomerase (PGI) activity. The series can be described thus: PGI activity of TPS activator. Type of series: biochemical, S. cerevisiae. Particulars: 50 mM HEPES/KOH pH 7.0, 5 mM MgCl2, 5 mM F6P; stored several months at 0° C. The protocol:
The PGI activity of a sample of TPS activator that had been stored for several months at 0° C. was measured in 50 mM HEPES/KOH pH 7.0, 5 mM MgCl2, 5 mM F6P and 0.4 mg/ml NADP. A specific activity of 190 U/mg was found.

B1: TPS activator: TPS activator from S. cerevisiae, identical to yeast phosphoglucoisomerase (protein, UniProt P12709 2-554, looked up)
Glucose-6-phosphate isomerase: SNNSFTNFKLATELPAWSKLQKIYESQGKTLSVKQEFQKDAKRFEKLNKTFTNYDGSKILFDYSKNLVNDEIIAALIELAKEANVTGLRDAMFKGEHINSTEDRAVYHVALRNRANKPMYVDGVNVAPEVDSVLKHMKEFSEQVRSGEWKGYTGKKITDVVNIGIGGSDLGPVMVTEALKHYAGVLDVHFVSNIDGTHIAETLKVVDPETTLFLIASKTFTTAETITNANTAKNWFLSKTGNDPSHIAKHFAALSTNETEVAKFGIDTKNMFGFESWVGGRYSVWSAIGLSVALYIGYDNFEAFLKGAEAVDNHFTQTPLEDNIPLLGGLLSVWYNNFFGAQTHLVAPFDQYLHRFPAYLQQLSMESNGKSVTRGNVFTDYSTGSILFGEPATNAQHSFFQLVHQGTKLIPSDFILAAQSHNPIENKLHQKMLASNFFAQAEALMVGKDEEQVKAEGATGGLVPHKVFSGNRPTTSILAQKITPATLGALIAYYEHVTFTEGAIWNINSFDQWGVELGKVLAKVIGKELDNSSTISTHDASTNGLINQFKEWM
As to B1, the PGI specific activity stood at 190 U/mg.
